This note sets out measurements from patent US11673916B2, “Neuroprotective peptides and methods of their use” (University of Pittsburgh—Of the Commonwealth System of …, priority 2020, dated 2023).

The target in the test is T1, Kv2.1 surface clusters (Mus musculus, UniProt Q03717).
T1 construct: immunohistochemical staining of endogenous Kv2.1 channel distribution; from tissue; host or cells: cerebral cortex of C57BL/6J mice, fixed coronal brain sections
T1 sequence (Q03717 1-857): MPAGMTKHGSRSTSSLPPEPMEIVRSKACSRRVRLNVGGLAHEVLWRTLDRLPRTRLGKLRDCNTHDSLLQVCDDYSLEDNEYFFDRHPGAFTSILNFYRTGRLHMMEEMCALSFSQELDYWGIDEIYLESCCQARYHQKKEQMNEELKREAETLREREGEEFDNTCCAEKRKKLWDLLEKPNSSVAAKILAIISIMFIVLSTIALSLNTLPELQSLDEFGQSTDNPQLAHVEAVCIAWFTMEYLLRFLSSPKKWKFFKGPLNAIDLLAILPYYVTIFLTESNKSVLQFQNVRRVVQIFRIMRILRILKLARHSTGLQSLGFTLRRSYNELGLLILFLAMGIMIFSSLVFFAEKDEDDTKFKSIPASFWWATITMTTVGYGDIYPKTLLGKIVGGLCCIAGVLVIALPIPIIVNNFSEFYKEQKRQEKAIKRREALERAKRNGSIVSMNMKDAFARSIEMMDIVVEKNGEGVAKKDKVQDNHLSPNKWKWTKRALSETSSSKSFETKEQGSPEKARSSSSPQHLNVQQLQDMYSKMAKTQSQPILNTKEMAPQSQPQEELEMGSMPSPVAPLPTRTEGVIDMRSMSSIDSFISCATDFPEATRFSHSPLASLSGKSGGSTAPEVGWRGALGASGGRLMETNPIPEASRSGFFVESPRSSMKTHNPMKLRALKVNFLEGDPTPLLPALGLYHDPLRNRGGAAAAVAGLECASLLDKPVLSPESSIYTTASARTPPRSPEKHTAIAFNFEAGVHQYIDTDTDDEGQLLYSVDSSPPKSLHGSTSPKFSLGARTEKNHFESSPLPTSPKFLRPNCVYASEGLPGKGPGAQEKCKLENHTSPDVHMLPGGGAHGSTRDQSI
Nature of the test: Immunohistochemistry of Kv2.1 clusters in mouse cerebral cortex after intraperitoneal peptide injection. The settings on record: 6 nmol/g intraperitoneal, sacrificed 2 hours post-injection, mean±SEM (FIG. 5D). It is filed as in vivo. The method, then: Eight-week-old C57BL/6J male mice (28-30 g; Jackson, Bar Harbor, Me.) were administered IP injections of 6 nmol/g TAT-DP-2 (n=3) or TAT-Sc-2 peptide (n=3). Two hours post-injection, mice were anesthetized with 3% isoflurane (Henry Schein Animal Health, Dublin, Ohio) in a 3:1 […] gas mixture. Fifty mL of ice-cold 1× sterile PBS was transcardially perfused (5-10 mL/min), immediately followed by 50 mL of 4% sterile paraformaldehyde (PFA; 5-10 mL/min). Brains were removed and placed in 4% PFA at 4° C. for 24 hours, then transferred to 30% sucrose in 1× PBS at 4° C. for 48-72 hours. […]
To analyze Kv2.1 distribution in live primary cortical neurons, cells were transfected with both a tdTomato construct and a GFP-tagged Kv2.1 construct (O'Connell, et al., J Neurosci. 26: 9609-9618, 2006) and imaged on a Nikon A1+ confocal microscope (Nikon, Tokyo, Japan). […] For live images of transfected neurons, object count parameters were customized to define a Kv2.1 cluster as an area of high intensity GFP fluorescence (compared to background), measuring 0.05 μm^2 or larger (Schulien et al., J Physiol (Lond). 594: 2647-2659, 2016). Kv2.1 cluster density was calculated by normalizing the number of Kv2.1 clusters counted to the somatic area of each neuron (#Kv2.1 clusters/μm^2). […]

In the case of “YGRKKRRQRRRDFSSIST [TAT-Sc-2, TAT-linked scramble control peptide]”, the “mean Kv2.1 cluster density in superficial cortex” value is 565.70±50.72 #Kv2.1 clusters/image field.
“YGRKKRRQRRRSIDSFTS [TAT-DP-2, TAT-linked declustering peptide 2]”: the “mean Kv2.1 cluster density in superficial cortex” value was 301.10±39.60 #Kv2.1 clusters/image field.
